Data published in publication PMC10653834, “Conformational variability of cyanobacterial ChlI, the AAA+ motor of magnesium chelatase involved in chlorophyll biosynthesis” (mBio, 2023).

How the values were obtained:
ChlI [1] = target: T1, ChlI (Nostoc sp. PCC 7120 = FACHB-418, UniProt P58571); experiment: cryo-EM structure of hexamers under turnover; malachite green ATPase assay; assay type: binding; settings: 10 mM ATP, 50 mM MgCl2, pH 7.5; nucleotide pocket at monomer interfaces; hydrolysis at 37 °C
T1 construct: full length, N-terminal His6 tag (kept), pET15b, E. coli LOBSTR; approximately 40 kDa; ATP-induced hexamer (also pentamer); residues 1-13 and 354-374 not modelled

ChlI [2] = target: T1, ChlI; experiment: cryo-EM structure of hexamers under turnover; assay type: binding; settings: ADP formed from 10 mM ATP, 50 mM MgCl2, pH 7.5; nucleotide pocket at monomer interfaces
[3] = target: the molecule itself; experiment: cryo-EM structure; 0.5 mg/mL ChlI with 10 mM ATP, 50 mM MgCl2, 0.05% LMNG, 1 mM DTT; no symmetry applied
[4] = target: the molecule itself; experiment: mass photometry; ChlI incubated at 0.5 mg/mL in Tris buffer with 10 mM ADP and 50 mM MgCl2; diluted before measurement
[5] = target: the molecule itself; experiment: mass photometry; ChlI incubated at 0.5 mg/mL in Tris buffer (20 mM Tris, 200 mM NaCl, pH 7.5) alone or with 50 mM MgCl2, no nucleotide; diluted before measurement

Which “cryo-EM structure of hexamers under turnover; malachite green ATPase assay” value (ChlI [1]) does the source give for `Nc1ncnc2c1ncn2[C@@H]1O[C@H](COP(=O)(O)OP(=O)(O)OP(=O)(O)O)[C@@H](O)[C@H]1O` [ATP] here?
The value was “Conformation A is characterized by ATP molecules bound in five monomers and ADP in one”.

Which “cryo-EM structure of hexamers under turnover” value (ChlI [2]) does the source give for `Nc1ncnc2c1ncn2[C@@H]1O[C@H](COP(=O)(O)OP(=O)(O)O)[C@@H](O)[C@H]1O` [ADP] here?
The value was “conformation B has ATP bound in four monomers and ADP in two”.

B1: Nostoc sp. PCC 7120 ChlI, motor (AAA+) subunit of magnesium chelatase (enzyme, UniProt P58571 1-374, looked up)
chain: MTPTAQTTASARRVVFPFTAIVGQEEMKLALLLNVIDPKIGGVMIMGDRGTGKSTTIRALADLLPEIPVVANDPFNSDPSDPDLMSDEVRQKSGTGAEIPIEFKKVQMVDLPLGATEDRVCGTIDIEKALSEGVKAFEPGLLAKANRGILYVDEVNLLDDHLVDVLLDSAASGWNTVEREGISIRHPARFVLVGSGNPEEGELRPQLLDRFGMHAEIHTVKEPALRVQIVEQRSEFDQNPPTFLEKYNPEQTALQKKIVEAQKLLPEVKLDYDLRVKISEVCSELDVDGLRGDIVTNRAAKALTAYEGRTEVTVDDIRRVITLCLRHRLRKDPLESIDSGYKVEKVFARIFGVELLEDDSSQKNGAGQIKTGVR
notes: Magnesium chelatase subunit ChlI of Nostoc sp; PCC 7120, gene all0152, amplified from genomic DNA; The printed forward primer places ATG and six His codons before codon 2 (ACT CCA ACA ...); the reverse primer includes the stop codon; Model building counts residues 1-374; Oligomeric state depends on the nucleotide (monomers/dimers without; pentamers and hexamers with ATP and MgCl2); also called …
With B1 as the molecule, how does the “stoichiometry N” value [3] read?
The value was 5.

And the “stoichiometry N” value [4]?
The value was 6.

What about the “stoichiometry N” value [5] of the same molecule?
Its value is 2.
